# Reference: article PMC12561426, “Dissecting the Interplay Between NRF2 and BACH1 at CsMBEs”
# T1: NRF2DBD (UniProt Q16236 451-567)
# T1 sequence: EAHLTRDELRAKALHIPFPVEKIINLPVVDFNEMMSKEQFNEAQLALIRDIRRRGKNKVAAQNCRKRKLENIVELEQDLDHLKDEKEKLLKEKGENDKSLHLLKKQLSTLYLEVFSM
# Legend:
# [1] = target: T1, NRF2DBD; assay: EMSA; apparent; homodimer; 150 mM NaCl, 50 mM HEPES pH 7.9, 10% glycerol, 1 mM TCEP, 1 mM DTT, 2 mM MgCl2; 3 nM DNA; TEV and 3C 50 ug/mL each, 4 h 25 °C; competition then O/N 4 °C; gels 4 °C in 1X TBE; conditions: protein: recombinant; tags: C-terminal 3C-6xHis; chain copies: 2; label: 5' fluorescein on forward strand; blunt
# [2] = target: sMafGDBD (UniProt O15525 1-162); assay: as above; conditions: protein: recombinant; tags: N-terminal 6xHis-TEV; chain copies: 2; label: 5' fluorescein on forward strand; blunt
# [3] = target: BACH1DBD (UniProt O14867 511-627); assay: EMSA; apparent; homodimer concentration; 150 mM NaCl, 50 mM HEPES pH 7.9, 10% glycerol, 1 mM TCEP, 1 mM DTT, 2 mM MgCl2; 3 nM DNA; TEV and 3C 50 ug/mL each, 4 h 25 °C; competition then O/N 4 °C; gels 4 °C in 1X TBE; conditions: protein: recombinant; tags: C-terminal 3C-6xHis; chain copies: 2; label: 5' fluorescein on forward strand; blunt
# BACH1DBD, sequence (O14867 511-627): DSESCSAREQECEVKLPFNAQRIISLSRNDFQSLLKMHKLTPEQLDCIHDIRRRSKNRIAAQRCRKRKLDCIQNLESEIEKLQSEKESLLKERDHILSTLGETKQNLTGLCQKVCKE
binder,measurement,setting,value
HMOX1 CsMBE 30-mer (dsDNA) DNA 1: CTCGGGACCGTGACTCAGCAGGAAAAACAC DNA 2: GTGTTTTTCCTGCTGAGTCACGGTCCCGAG,Kd,[1],~590 nM
same,Kd,[2],~203 nM
same,Kd,[3],~802 nM
